The text below walks through data of article PMC10786891, “Massively parallel profiling of RNA-targeting CRISPR-Cas13d”.

Sequences and labels used below:
T1: EsCas13d, nuclease-dead (Eubacterium siraeum, UniProt B0MS50, R295A;H300A;R849A;H854A)
T1 sequence: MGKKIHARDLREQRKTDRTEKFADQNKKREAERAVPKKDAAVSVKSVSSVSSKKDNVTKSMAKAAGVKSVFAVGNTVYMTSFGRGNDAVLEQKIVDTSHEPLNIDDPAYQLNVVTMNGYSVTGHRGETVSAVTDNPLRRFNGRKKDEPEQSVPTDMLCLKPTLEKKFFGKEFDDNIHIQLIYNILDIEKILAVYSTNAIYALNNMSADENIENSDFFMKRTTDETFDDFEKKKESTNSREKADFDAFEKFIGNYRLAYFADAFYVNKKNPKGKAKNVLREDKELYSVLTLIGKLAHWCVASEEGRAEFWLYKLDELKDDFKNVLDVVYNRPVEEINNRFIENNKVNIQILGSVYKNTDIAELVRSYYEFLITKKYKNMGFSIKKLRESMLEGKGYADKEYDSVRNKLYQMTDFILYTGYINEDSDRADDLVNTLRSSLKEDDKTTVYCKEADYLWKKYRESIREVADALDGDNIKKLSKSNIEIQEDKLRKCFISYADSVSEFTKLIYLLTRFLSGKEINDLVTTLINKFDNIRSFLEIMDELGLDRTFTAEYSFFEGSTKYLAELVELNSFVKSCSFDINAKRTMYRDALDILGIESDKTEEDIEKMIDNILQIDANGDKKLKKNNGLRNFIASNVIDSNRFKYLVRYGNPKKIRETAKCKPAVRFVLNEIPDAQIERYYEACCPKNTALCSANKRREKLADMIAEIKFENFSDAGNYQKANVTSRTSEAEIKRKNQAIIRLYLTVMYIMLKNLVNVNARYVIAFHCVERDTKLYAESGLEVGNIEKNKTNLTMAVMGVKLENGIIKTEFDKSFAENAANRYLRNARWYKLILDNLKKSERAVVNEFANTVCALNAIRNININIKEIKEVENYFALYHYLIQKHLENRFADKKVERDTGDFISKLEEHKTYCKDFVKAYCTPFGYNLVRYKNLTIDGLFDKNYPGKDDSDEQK

B1: target 3 G4A,A5C (mixed)
RNA 1: CACCCGUGCAAAAUUGCAGGGGUCUAAAACGACCUGAAUAUUUCAGAUCAAA
RNA 2: GGGAAUGGAUCCACAUCUACGAAUUCGUUUUUGAUCUGAAAUAUUCCAGUCUGCAGAUCGGAAGAGCACACGU
B2: target 3 insA 3' of 6,insC 3' of 4 (mixed)
RNA 1: CACCCGUGCAAAAUUGCAGGGGUCUAAAACGACCUGAAUAUUUCAGAUCAAA
RNA 2: GGGAAUGGAUCCACAUCUACGAAUUCGUUUUUGAUCUGAAAUAUUCAAGCGUCUGCAGAUCGGAAGAGCACACGU
B3: target 3 C1A,A9G (mixed)
RNA 1: CACCCGUGCAAAAUUGCAGGGGUCUAAAACGACCUGAAUAUUUCAGAUCAAA
RNA 2: GGGAAUGGAUCCACAUCUACGAAUUCGUUUUUGAUCUGAAAUGUUCAGGUAUGCAGAUCGGAAGAGCACACGU
B4: target 3 C16U,U22C (mixed)
RNA 1: CACCCGUGCAAAAUUGCAGGGGUCUAAAACGACCUGAAUAUUUCAGAUCAAA
RNA 2: GGGAAUGGAUCCACAUCUACGAAUUCGUUCUUGAUUUGAAAUAUUCAGGUCUGCAGAUCGGAAGAGCACACGU
B5: target 3 del21,del22 (mixed)
RNA 1: CACCCGUGCAAAAUUGCAGGGGUCUAAAACGACCUGAAUAUUUCAGAUCAAA
RNA 2: GGGAAUGGAUCCACAUCUACGAAUUCGUUUGAUCUGAAAUAUUCAGGUCUGCAGAUCGGAAGAGCACACGU
B6: target 3 insG 3' of 7,insC 3' of 7 (mixed)
RNA 1: CACCCGUGCAAAAUUGCAGGGGUCUAAAACGACCUGAAUAUUUCAGAUCAAA
RNA 2: GGGAAUGGAUCCACAUCUACGAAUUCGUUUUUGAUCUGAAAUAUUGCCAGGUCUGCAGAUCGGAAGAGCACACGU
B7: target 3 insG 3' of 9,insC 3' of 5 (mixed)
RNA 1: CACCCGUGCAAAAUUGCAGGGGUCUAAAACGACCUGAAUAUUUCAGAUCAAA
RNA 2: GGGAAUGGAUCCACAUCUACGAAUUCGUUUUUGAUCUGAAAUAGUUCACGGUCUGCAGAUCGGAAGAGCACACGU
B8: target 3 A12C,U22C (mixed)
RNA 1: CACCCGUGCAAAAUUGCAGGGGUCUAAAACGACCUGAAUAUUUCAGAUCAAA
RNA 2: GGGAAUGGAUCCACAUCUACGAAUUCGUUCUUGAUCUGACAUAUUCAGGUCUGCAGAUCGGAAGAGCACACGU
B9: target 3 U22C (mixed)
RNA 1: CACCCGUGCAAAAUUGCAGGGGUCUAAAACGACCUGAAUAUUUCAGAUCAAA
RNA 2: GGGAAUGGAUCCACAUCUACGAAUUCGUUCUUGAUCUGAAAUAUUCAGGUCUGCAGAUCGGAAGAGCACACGU
B10: target 3 U2A,G4C (mixed)
RNA 1: CACCCGUGCAAAAUUGCAGGGGUCUAAAACGACCUGAAUAUUUCAGAUCAAA
RNA 2: GGGAAUGGAUCCACAUCUACGAAUUCGUUUUUGAUCUGAAAUAUUCACGACUGCAGAUCGGAAGAGCACACGU
B11: target 3 U2G,C6A (mixed)
RNA 1: CACCCGUGCAAAAUUGCAGGGGUCUAAAACGACCUGAAUAUUUCAGAUCAAA
RNA 2: GGGAAUGGAUCCACAUCUACGAAUUCGUUUUUGAUCUGAAAUAUUAAGGGCUGCAGAUCGGAAGAGCACACGU
B12: target 3 insG 3' of 6,insU 3' of 3 (mixed)
RNA 1: CACCCGUGCAAAAUUGCAGGGGUCUAAAACGACCUGAAUAUUUCAGAUCAAA
RNA 2: GGGAAUGGAUCCACAUCUACGAAUUCGUUUUUGAUCUGAAAUAUUCGAGGUUCUGCAGAUCGGAAGAGCACACGU
B13: target 3 C1G,U22C (mixed)
RNA 1: CACCCGUGCAAAAUUGCAGGGGUCUAAAACGACCUGAAUAUUUCAGAUCAAA
RNA 2: GGGAAUGGAUCCACAUCUACGAAUUCGUUCUUGAUCUGAAAUAUUCAGGUGUGCAGAUCGGAAGAGCACACGU
B14: target 3 insU 3' of 22,insU 3' of 4 (mixed)
RNA 1: CACCCGUGCAAAAUUGCAGGGGUCUAAAACGACCUGAAUAUUUCAGAUCAAA
RNA 2: GGGAAUGGAUCCACAUCUACGAAUUCGUUUUUUGAUCUGAAAUAUUCAGUGUCUGCAGAUCGGAAGAGCACACGU
B15: target 3 insU 3' of 22,insA 3' of 2 (mixed)
RNA 1: CACCCGUGCAAAAUUGCAGGGGUCUAAAACGACCUGAAUAUUUCAGAUCAAA
RNA 2: GGGAAUGGAUCCACAUCUACGAAUUCGUUUUUUGAUCUGAAAUAUUCAGGUACUGCAGAUCGGAAGAGCACACGU
B16: target 3 G4A,C6G (mixed)
RNA 1: CACCCGUGCAAAAUUGCAGGGGUCUAAAACGACCUGAAUAUUUCAGAUCAAA
RNA 2: GGGAAUGGAUCCACAUCUACGAAUUCGUUUUUGAUCUGAAAUAUUGAAGUCUGCAGAUCGGAAGAGCACACGU
B17: target 3 U2G,U7A (mixed)
RNA 1: CACCCGUGCAAAAUUGCAGGGGUCUAAAACGACCUGAAUAUUUCAGAUCAAA
RNA 2: GGGAAUGGAUCCACAUCUACGAAUUCGUUUUUGAUCUGAAAUAUACAGGGCUGCAGAUCGGAAGAGCACACGU
B18: target 3 U7A,U22C (mixed)
RNA 1: CACCCGUGCAAAAUUGCAGGGGUCUAAAACGACCUGAAUAUUUCAGAUCAAA
RNA 2: GGGAAUGGAUCCACAUCUACGAAUUCGUUCUUGAUCUGAAAUAUACAGGUCUGCAGAUCGGAAGAGCACACGU
B19: target 3 G4A,U22C (mixed)
RNA 1: CACCCGUGCAAAAUUGCAGGGGUCUAAAACGACCUGAAUAUUUCAGAUCAAA
RNA 2: GGGAAUGGAUCCACAUCUACGAAUUCGUUCUUGAUCUGAAAUAUUCAAGUCUGCAGAUCGGAAGAGCACACGU
B20: target 3 insU 3' of 6,insU 3' of 4 (mixed)
RNA 1: CACCCGUGCAAAAUUGCAGGGGUCUAAAACGACCUGAAUAUUUCAGAUCAAA
RNA 2: GGGAAUGGAUCCACAUCUACGAAUUCGUUUUUGAUCUGAAAUAUUCUAGUGUCUGCAGAUCGGAAGAGCACACGU
B21: target 3 insC 3' of 8,insC 3' of 3 (mixed)
RNA 1: CACCCGUGCAAAAUUGCAGGGGUCUAAAACGACCUGAAUAUUUCAGAUCAAA
RNA 2: GGGAAUGGAUCCACAUCUACGAAUUCGUUUUUGAUCUGAAAUAUCUCAGGCUCUGCAGAUCGGAAGAGCACACGU
B22: target 3 insU 3' of 6,insG 3' of 5 (mixed)
RNA 1: CACCCGUGCAAAAUUGCAGGGGUCUAAAACGACCUGAAUAUUUCAGAUCAAA
RNA 2: GGGAAUGGAUCCACAUCUACGAAUUCGUUUUUGAUCUGAAAUAUUCUAGGGUCUGCAGAUCGGAAGAGCACACGU
B23: target 3 insC 3' of 5,insC 3' of 3 (mixed)
RNA 1: CACCCGUGCAAAAUUGCAGGGGUCUAAAACGACCUGAAUAUUUCAGAUCAAA
RNA 2: GGGAAUGGAUCCACAUCUACGAAUUCGUUUUUGAUCUGAAAUAUUCACGGCUCUGCAGAUCGGAAGAGCACACGU
B24: target 3 U8G,U22A (mixed)
RNA 1: CACCCGUGCAAAAUUGCAGGGGUCUAAAACGACCUGAAUAUUUCAGAUCAAA
RNA 2: GGGAAUGGAUCCACAUCUACGAAUUCGUUAUUGAUCUGAAAUAGUCAGGUCUGCAGAUCGGAAGAGCACACGU
B25: target 3 insG 3' of 6,insA 3' of 2 (mixed)
RNA 1: CACCCGUGCAAAAUUGCAGGGGUCUAAAACGACCUGAAUAUUUCAGAUCAAA
RNA 2: GGGAAUGGAUCCACAUCUACGAAUUCGUUUUUGAUCUGAAAUAUUCGAGGUACUGCAGAUCGGAAGAGCACACGU
B26: target 1 C7U,U19C (mixed)
RNA 1: CACCCGUGCAAAAAUGCAGGGGUCUAAAACUGAGCGGAUAACCUCUCUAUGG
RNA 2: GGGAAUGGAUCCACAUCUACGAAUUCGUACCACAGAGAGGUUAUUCGCUCACCGAGAUCGGAAGAGCACACGU
B27: target 1 insU 3' of 20,insA 3' of 2 (mixed)
RNA 1: CACCCGUGCAAAAAUGCAGGGGUCUAAAACUGAGCGGAUAACCUCUCUAUGG
RNA 2: GGGAAUGGAUCCACAUCUACGAAUUCGUACCAUUAGAGAGGUUAUCCGCUCAACCGAGAUCGGAAGAGCACACGU

This series addresses T1, EsCas13d, nuclease-dead. The series is described as follows: crRNA (strand 1, pre-loaded); Mg2+; 40 mM Tris-HCl pH 7.5, 150 mM NaCl, 6 mM MgCl2, 1 mM DTT, 0.1% Tween-20, 0.2 mg/ml BSA; 25 C; 10 min per concentration, then washed. As to conditions: tags: His6-TwinStrep-SUMO cleaved; N-terminal SNAP kept (SNAP-Surface 488); label: 3' end held by stalled T7 RNA polymerase.
B1: the Kd (in general, the free concentration of one partner at which half of the binding sites on the other are occupied at equilibrium, for simple one-to-one binding) was determined as 99 ± 21 nM. For the molecule B2, binding was put at a Kd of 8.4 ± 0.95 nM. The same measure for B3: 61 ± 16.5 nM; for B4: 81.5 ± 30 nM.

As to B5, the dissociation constant Kd was 13.4 ± 1.7 nM. Then B6, with 44.5 ± 5 nM; and B7, with 80.5 ± 12.5 nM. Then B8, with 53 ± 20 nM; and B9, with 13.8 ± 1.8 nM. Regarding B10, binding was put at a Kd of 5.05 ± 0.55 nM.

In turn, B11 registered a Kd of 11.3 ± 1.4 nM. Then B12, with 6.95 ± 0.6 nM; and B13, with 41 ± 8 nM.

With B14, the Kd came out at 4.9 ± 0.95 nM. Molecule B15 had a Kd of 26.2 ± 2.5 nM. The same measure for B16: 42 ± 4.5 nM; for B17: 6.55 ± 0.85 nM. Then B18, with 41 ± 6.5 nM; and B19, with 7.05 ± 1 nM. Molecule B20 displayed a Kd of 6.95 ± 0.7 nM.

In turn, B21 displayed a dissociation constant (Kd) of 77 ± 23 nM.

In turn, B22 had a Kd of 10.9 ± 0.9 nM.

As for B23, the Kd is 19.6 ± 1.9 nM. For the molecule B24, the Kd was 72.5 ± 13.5 nM. For B25, the Kd stood at 15.6 ± 1.85 nM. With B26, the Kd amounted to 23.5 ± 1.7 nM. B27 displayed a Kd of 12 ± 0.7 nM.
